B1: Atto488-labeled TTLL6 (enzyme, Mus musculus, UniProt A4Q9E8 51-502, looked up)
chain: GKKKRKKKRLVINLSNCRYDSVRRAAQQYGLREAGDNDDWTLYWTDYSVSLERVMEMKSYQKINHFPGMSEICRKDLLARNMSRMLKLFPKDFHFFPRTWCLPADWGDLQTYSRTRKNKTYICKPDSGCQGRGIFITRSVKEIKPGEDMICQLYISKPFIIDGFKFDLRVYVLVTSCDPLRVFVYNEGLARFATTSYSHPNLDNLDEICMHLTNYSINKHSSNFVQDAFSGSKRKLSTFNSYMKTHGYDVEQIWRGIEDVIIKTLISAHPVIKHNYHTCFPSHTLNSACFEILGFDILLDRKLKPWLLEVNHSPSFSTDSKLDKEVKDSLLYDALVLINLGNCDKKKVLEEERQRGRFLQQCPNREIRLEEVKGFQAMRLQKTEEYEKKNCGGFRLIYPGLNLEKYDKFFQDNSSLFQNTVASRARELYARQLIQELRQKQEKKVFLKKARK
modifications: Atto488 on the N-terminus, through the synthetic peptide NH2-(Atto488)-LPETGGGG ligated with sortase

Legend:
[1] = target: microtubules assembled from porcine brain tubulin (porcine, UniProt P02550 1-451; P02554 1-445); test: co-sedimentation
Sequence of microtubules assembled from porcine brain tubulin (P02550 whole entry, chain 1 of 2): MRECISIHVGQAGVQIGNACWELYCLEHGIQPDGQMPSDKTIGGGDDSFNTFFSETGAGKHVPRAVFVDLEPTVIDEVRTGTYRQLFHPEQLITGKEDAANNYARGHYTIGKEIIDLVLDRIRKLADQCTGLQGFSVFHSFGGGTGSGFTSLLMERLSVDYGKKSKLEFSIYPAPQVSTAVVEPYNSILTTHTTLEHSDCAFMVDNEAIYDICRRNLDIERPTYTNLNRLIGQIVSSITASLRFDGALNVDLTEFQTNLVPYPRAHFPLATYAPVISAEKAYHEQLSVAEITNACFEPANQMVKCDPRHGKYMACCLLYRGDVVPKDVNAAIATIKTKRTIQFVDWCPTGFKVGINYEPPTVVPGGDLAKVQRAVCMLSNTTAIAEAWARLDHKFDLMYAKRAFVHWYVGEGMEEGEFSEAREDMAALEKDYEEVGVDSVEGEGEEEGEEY
Sequence of microtubules assembled from porcine brain tubulin (P02554 whole entry, chain 2 of 2): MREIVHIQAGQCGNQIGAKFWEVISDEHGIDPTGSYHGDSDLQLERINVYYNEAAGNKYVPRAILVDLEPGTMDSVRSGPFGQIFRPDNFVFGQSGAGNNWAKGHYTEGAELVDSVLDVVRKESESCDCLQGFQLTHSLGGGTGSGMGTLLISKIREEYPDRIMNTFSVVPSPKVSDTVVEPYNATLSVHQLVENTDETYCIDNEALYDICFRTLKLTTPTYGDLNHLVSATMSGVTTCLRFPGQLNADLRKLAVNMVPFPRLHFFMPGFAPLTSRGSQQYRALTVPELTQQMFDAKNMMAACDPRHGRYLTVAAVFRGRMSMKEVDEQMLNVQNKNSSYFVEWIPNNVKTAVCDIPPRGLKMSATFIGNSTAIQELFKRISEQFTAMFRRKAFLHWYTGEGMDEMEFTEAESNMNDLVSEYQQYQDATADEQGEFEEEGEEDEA

[2] = target: subtilisin-treated unmodified human microtubules missing their β-tubulin tails (human (endogenous in tsA201), UniProt P68363 1-451; P07437 1-444); test: TIRF microscopy binding assay
Sequence of subtilisin-treated unmodified human microtubules missing their β-tubulin tails (P68363 whole entry, chain 1 of 2): as the sequence (P02550 whole entry, chain 1 of 2) above, with S136L, G232S, A265I, T340S, E358Q counted along it
Sequence of subtilisin-treated unmodified human microtubules missing their β-tubulin tails (P07437 1-427, chain 2 of 2): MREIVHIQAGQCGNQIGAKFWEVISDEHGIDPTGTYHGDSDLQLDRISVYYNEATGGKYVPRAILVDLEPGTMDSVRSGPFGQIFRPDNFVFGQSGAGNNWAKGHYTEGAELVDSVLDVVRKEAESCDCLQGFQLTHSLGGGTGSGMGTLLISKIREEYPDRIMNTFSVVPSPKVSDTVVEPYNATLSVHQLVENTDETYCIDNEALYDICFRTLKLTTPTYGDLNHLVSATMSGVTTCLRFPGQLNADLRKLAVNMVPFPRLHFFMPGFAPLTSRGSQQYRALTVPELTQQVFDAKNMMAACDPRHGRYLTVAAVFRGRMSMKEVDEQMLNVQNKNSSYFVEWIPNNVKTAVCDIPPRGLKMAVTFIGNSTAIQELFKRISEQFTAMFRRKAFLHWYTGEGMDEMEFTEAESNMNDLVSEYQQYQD

| Binder | Kd [1] [µM] | fold decrease in recruitment against MTs with intact β-tails [2] [fold] |
| --- | --- | --- |
| FQDNSSLFQNTVASRARELYARQLIQELRQKQEKKVFLKKARK (domain or fragment, Mus musculus, UniProt A4Q9E8 460-502, looked up) [TTLL6 MTBH1-2 (460–502)] | 3.7 | – |
| B1 | – | ~18 |

Source: PMC11529724 (Nature chemical biology, 2024)
